The results in this text go back to patent publication US10858422B2, “Methods for treating systemic lupus erythematosus with an anti-apolipoprotein B antibody” (Abcentra, LLC, priority 2016, dated 2020).

Series [1] relates to PBMC isolated from SLE patients. The series is described as follows: Uptake of DiI-oxLDL and cytokine release in SLE PBMC with MDA.P45-IgG. The series is classed as cell-based, human. The settings on record: 10 μg/ml antibody with 10 μg/ml labelled oxLDL, 24 hours. Here is the method: Flow cytometry analysis of PBMCs stimulated with DIloxLDL and MDA.P45-IgG antibody: PBMCs were slowly thawed in 37° C. PBS with 2% autologous serum, counted and seeded into appropriate medium and conditions. Medium for each stimuli condition was prepared from complete RPMI (cRPMI, 10 U/ml Penicillin/streptomycin, 1% L-glutamine, 1% sodium pyruvate, 1% Hepes and 0.1% mercaptoethanol) with 2% autologous serum (Sigma Aldrich) including the respective stimuli conditions and pre-incubated in 37° C. for 1 h before stimulating the cells with it. Condition 1; unstimulated, condition 2; 10 μg/ml Dil-OxLDL (Thermo Scientific), condition 3; 10 μg/ml Dil-OxLDL with MDA.P45-IgG. (Dil-OxLDL refers to oxidized LDL complexed with Dil dye).
At time of experiment, cells were slowly thawed in 37° C. PBS containing 2% autologous serum. Cells were counted and all cells obtained were divided into three wells for respective condition mentioned above for 24 h at 37° C. in 5% CO2. After 24 h stimulation, medium was harvested and kept in −80° C. until cytokine analysis. Cells were washed twice in FACS buffer (PBS 1% bovine serum albumin […] EDTA), then stained with Zombie Aqua viability dye for 20 minutes in room temperature (RT). This was followed by another wash then incubation with anti-HLA-DR APC-Cy7 anti-CD3-PECy7 and anti-CD14-AF700 for 30 minutes in RT prior acquisition in Gallios flow cytometer (Beckman Coulter, Brea, Calif., USA). Cell populations were manually gated in FlowJo LTT (Tree Star, San Diego, Calif., USA).
Multiplex analysis of PBMC cell culture medium: Cell culture medium from human SLE and control PBMCs were thawed on ice before analyzed using Multiplex Inflammation assay (Merck, Millipore, Burlington, Mass., USA) according to following kit instructions.
Having observed the protective effect of MDA-p45 IgG on atherosclerosis development in B6.lpr.ApoE−/− mice, we next investigated how this antibody affected the interaction of SLE PBMC with oxLDL. We incubated the cells with 10 μg/ml of fluorescently labelled oxLDL for 24 hours with and without addition of 10 μg/ml MDA-p45 IgG.

The conditions of series [2]: in vivo.
In series [3] the test system is healthy subjects with elevated LDL cholesterol. Put plainly: Phase I dose-escalation trial: biomarkers and lipids. The series is classed as in vivo, human. The settings on record: healthy volunteers. The text has this: Study population: 80 healthy subjects with elevated LDL cholesterol.
The panel included: oxLDL, Lp-PLA2, hsCRP, sCD36, MCP-1, ICAM-1, IL-10, VCAM-1, IL-1ra, TNFα, insulin, and MMP-3.

For series [4], the system named is patients with atherosclerosis and evidence of carotid or aortic plaque inflammation. Put plainly: Phase IIa: arterial inflammation by FDG-PET/CT (index vessel MDS-TBR). The series is classed as in vivo, human. The following applies: versus placebo; single (1245 mg IV) and multiple infusion groups. The protocol: The study enrolled 147 participants (83% male; mean age 63.0±9.0 years) with atherosclerosis and evidence of carotid or aortic plaque inflammation, measured by FDG-PET/computed tomography (CT). Because there is poor correlation between serum LDL levels and both serum and plaque oxLDL levels, patients were enrolled with a relatively wide range of serum LDL levels (fasting LDL>60 mg/dL at screening, which includes patients both above and below National Cholesterol Education Program Adult Treatment Panel III treatment goals). 139 patients completed the study.
The study consisted of a 28-day screening period, a 78-day treatment period, and a 90-day follow-up period. […] During the screening period, patient acceptability for the study was assessed on the basis of medical history, concomitant medications, physical examination, and clinical laboratory test results. Once a patient passed this initial screening phase, acceptability for study participation was confirmed on the basis of a TBR>1.8 in the qualifying vessel, as quantified by FDG-PET/CT. […]
The primary outcome variable was change in index vessel MDS-TBR (most diseased segment-target to background ratio) measured by FDG-PET/CT from baseline to week 12. Arterial FDG uptake was assessed as target to-background ratio (TBR). […]

Series [5] can be described thus: Phase IIa: safety, tolerability, anti-therapeutic antibodies. The arrangement: species or system human. The following applies: in vivo. Here is the method:
Incidence and severity of adverse events and clinical laboratory abnormalities as a measure of safety and tolerability of orticumab. Effects of orticumab on inflammatory and metabolic biomarkers. Serum and EDTA plasma samples for soluble biomarker analysis were obtained at baseline and on Day 29 and Day 85. Biomarker assays were performed using the HumanMAP1.6 multiplex panel from Rules Based Medicine (RBM). IL-6 and TNFα immunoassays were performed at Pacific Biomarkers using Quantikine R&D High Sensitivity ELISA. IL-10, MPO and oxLDL immunoassays were performed at Pacific Biomarkers using immunoassay kits from MSA, Prognostix, and Mercodia, respectively. Presence of anti-therapeutic antibodies to orticumab.

The next series concerns B6.lpr.ApoE−/− mice. The series is described as follows: Carotid artery mRNA expression. It is filed as in vivo, mouse. The settings on record: 1 mg i.p. weekly x3; vs control IgG. The protocol:
Statistics: Clinical comparisons from human individuals were evaluated and statistically tested using SPSS software. For same-individual analyses, paired nonparametric Wilxocon rank test was used. For normally distributed data, Students t-test was used. For not normally distributed data, Mann-Whitney rank test was used. Numerical data is expressed as mean±standard deviation if normally distributed or median±intra-quartile range if not normally distributed. Carotid gene expressions were log transformed and expressed as arbitrary units (A.U) and relative fold change respectively. All data was plotted in GraphPad Prism and significance levels used are *=p<0.05 **=p<0.01, ***=p<0.001.

The conditions of series [6]: in vivo, iv.
Description: Random allocation was stratified by T2DM status and pre-diabetes status, presence of elevated screening tissue-to-background ratio TBR>2), and study site.

As for “orticumab: recombinant human IgG1 against MDA-modified peptide 45 of ApoB100; heavy chain SEQ ID NO: 316, light chain SEQ ID NO: 317”, in series [1], the “cellular uptake of oxLDL” value was “increased cellular uptake”; the “expression of CD14 and uptake of oxLDL in CD14+ APC” value is reported as “increased”; the “release of anti-inflammatory cytokine IL-1RA” value is listed as “modest increase”. In addition, in series [2], the “subjects on active treatment reporting adverse events” value is on record as 44 of the 64 and the “treatment-emergent adverse events reported on active treatment” value was 115 (76.2%). Besides, the “biomarkers (oxLDL, Lp-PLA2, hsCRP, sCD36, MCP-1, ICAM-1, IL-10, VCAM-1, IL-1ra, TNFα, insulin, MMP-3)” value in series [3] is reported as “No treatment-induced general effects”. Besides, the “arterial inflammation (index vessel MDS-TBR), baseline to week 12” value in series [4] was “did not significantly reduce”. In addition, in series [5], the “dose-limiting toxicities, deaths, pregnancies” value was “No dose-limiting toxicities, deaths, or pregnancies”; the immunogenicity result is given as “no evidence of immunogenicity”; the “serious adverse events related to procedures or administration” value was “No serious adverse events”; the tolerability entry is recorded as “well tolerated”. Further, the “mRNA expression of IL-10 or MCP-1 in carotid arteries” value in the series on B6.lpr.ApoE−/− mice is reported as “no effect”. Also, the “Cmax D 1” value in series [6] was 297 μ/mL.
